From patent US20180155451A1 (published 2018) come the findings set out here.

By Kd is commonly meant the constant that tells how readily two partners part at equilibrium.

One assay deals with T1, FcgRIIIa F (human, UniProt P08637 17-208).
T1 construct: extracellular domain; also called FcγRIIIa F; not shown: His tag attached to the C terminus
Kind of assay: SPR (Biacore), antibody captured on chip, FcgR extracellular domain as analyte. As to the method: (§1) Analysis of interaction between obj ective antibody and the FcγR was carried out using Biacore T100 (GE Healthcare), Biacore T200, Biacore A100, and Biacore 4000. HBS-EP+ (GE Healthcare) was used as the running buffer, and the measurement temperature was set to 25° C. Chips produced by immobilizing the antigen peptide by the amine coupling method to a Series S sensor Chip CM5 (GE Healthcare), chips produced by allowing preliminarily biotinylated antigen peptides to interact with and immobilize onto a Series S Sensor Chip SA (certified) (GE Healthcare), chips produced by immobilizing Protein L (ACTIGEN, BioVision) to Series S Sencor Chip CM5 (GE Healthcare), or chips produced by immobilizing Protein A/G (Thermo Scientific) to Series S Sencor Chip CM5 (GE Healthcare) were used. Antibodies of interest were captured onto these chips, and allowed to interact to each FcγR diluted with running buffer. To regenerate and repeatedly use the chip, the antibodies captured onto the chip were washed off by reacting 10 mM glycine-HCl, pH 1.5.

The next assay has as its target T2, FcgRIa (human, UniProt P12314 16-292).
T2 construct: extracellular domain; Expressed in FreeStyle293 cells and purified; used as analyte in Biacore; also called FcγRIa; FcγRI; not shown: His tag attached to the C terminus
The description is as above. The protocol:
as §1

Another assay concerns the target T3, FcgRIIa H (human, UniProt P12318 34-217).
T3 construct: extracellular domain; also called FcγRIIa H; FcγRIIa type H; not shown: His tag attached to the C terminus
T3 sequence (looked up): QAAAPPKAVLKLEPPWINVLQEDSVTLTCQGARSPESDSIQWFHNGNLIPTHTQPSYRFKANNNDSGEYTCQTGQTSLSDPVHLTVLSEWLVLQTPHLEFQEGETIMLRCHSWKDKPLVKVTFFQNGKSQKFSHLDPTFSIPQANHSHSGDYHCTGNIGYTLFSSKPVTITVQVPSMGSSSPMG
The assay is described as above. The protocol: as §1

A further assay has as its target T4, FcgRIIIa V (human, UniProt P08637 17-208).
T4 construct: extracellular domain; also called FcγRIIIa V; not shown: His tag attached to the C terminus
Described as above. The protocol:
as §1

The target of another assay is T5, FcgRIIb (human, UniProt P31994 43-217).
T5 construct: extracellular domain; Expressed in FreeStyle293 cells and purified; used as analyte in Biacore; also called FcγRIIb; CD32B; not shown: His tag attached to the C terminus
T5 sequence (looked up): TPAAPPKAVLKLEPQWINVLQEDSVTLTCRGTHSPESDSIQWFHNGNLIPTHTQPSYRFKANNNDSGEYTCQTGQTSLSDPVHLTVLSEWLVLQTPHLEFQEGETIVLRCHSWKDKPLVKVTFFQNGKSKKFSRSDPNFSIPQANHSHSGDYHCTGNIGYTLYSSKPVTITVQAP
Described as above. The protocol: as §1

A further assay has as its target T6, FcgRIIa R (human, UniProt P12318 34-217).
T6 construct: extracellular domain; also called FcγRIIa R; FcγRIIa type R; not shown: His tag attached to the C terminus
T6 sequence (looked up): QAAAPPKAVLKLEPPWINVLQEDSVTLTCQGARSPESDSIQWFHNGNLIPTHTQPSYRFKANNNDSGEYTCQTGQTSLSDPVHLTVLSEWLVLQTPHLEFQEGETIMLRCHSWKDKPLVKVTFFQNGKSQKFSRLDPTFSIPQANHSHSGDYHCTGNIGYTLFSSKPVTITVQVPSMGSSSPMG
The assay is described as above. As to the method: as §1

Assay [1] concerns the target T7, FcγRIIIa extracellular domain with C-terminal His tag (human, UniProt P08637 17-208).
T7 construct: extracellular domain; also called FcgRIIIa; CD16A
Kind of assay: SPR (Biacore), antibody captured, FcγRIIIa as analyte, 1:1 Langmuir kinetic fit. The protocol:
The prepared antibodies were compared for the FcγRIIIa-binding activity using, as an indicator, KD for FcγRIIIa that was determined according to the method described in Reference Example 2.
(§2) Analysis of interaction between objective antibody and the FcγR was carried out using Biacore T100 (GE Healthcare). HBS-EP+ (GE Healthcare) was used as the running buffer, and the measurement temperature was set to 25° C. Chips produced by immobilizing the antigen peptide by the amine coupling method to a Series S Sencor Chip CM5 (GE Healthcare), or alternatively, chips produced by allowing preliminarily biotinylated antigen peptides to interact with and immobilize onto a Series S Sensor Chip SA (certified) (GE Healthcare) were used. Antibodies of interest were captured onto an antigen peptide-immobilized chip, and allowed to interact to each FcγR diluted with running buffer. To regenerate and repeatedly use the chip, the antibodies captured on the chip were washed off by reacting 10 mM glycine-HCl, pH 1.5.
The FcγR-binding activity of each antibody was assessed primarily using as an indicator the FcγR-binding activity and dissociation constant for FcγR.
On the technique in general: Surface plasmon resonance follows binding to a sensor surface in real time, without labels.

Assay [2] addresses T7, FcγRIIIa extracellular domain with …. Kind of assay: SPR (Biacore), ratio of KD values for FcγRIIIa.
Source text: GpH7-A57 (SEQ ID NO: 40) resulting from the introduction of all of S239D, A330L, and I332E into GpH7-A5; GpH7-B78 (SEQ ID NO: 41) resulting from the introduction of all of S239D, A330L, and I332E into GpH7-B3; GpH7-TA7 (SEQ ID NO: 31) resulting from the introduction of all of L234Y, G236W, and S298A into GpH7-A5; and GpH7-TA45 (SEQ ID NO: 32) resulting from the introduction of all of L234Y, G236W, and S298A into GpH7-B3. […] The prepared antibodies were compared for the FcγRIIIa-binding activity using, as an indicator, KD for FcγRIIIa that was determined according to the method described in Reference Example 2.
as §2

Assay [3] shares this target. The assay is described as follows: SPR (Biacore), antibody captured on antigen peptide chip, FcγR as analyte. As to the method: GpH7-TA8 (SEQ ID NO: 33) and GpH7-B12 (SEQ ID NO: 12) resulting from the introduction of P329R into GpH7-TA7 and GpH7-B3, respectively, were prepared according to the method described in Reference Example 1.
as §2

For assay [4] the target is unchanged. Described as above. As to the method:
Specifically, GpH7-TA7 and GpH7-TA45 (SEQ ID NO: 32) resulting from the introduction of L234Y, G236W, and S298A into GpH7-A5 and GpH7-B3, respectively, were prepared according to the method described in Reference Example 1. […] These antibodies were compared for the FcγRIIIa binding according to the method described in Reference Example 2 (Table 10).
as §2
The source holds these as a separate data set.

T7 sequence (P08637 17-208): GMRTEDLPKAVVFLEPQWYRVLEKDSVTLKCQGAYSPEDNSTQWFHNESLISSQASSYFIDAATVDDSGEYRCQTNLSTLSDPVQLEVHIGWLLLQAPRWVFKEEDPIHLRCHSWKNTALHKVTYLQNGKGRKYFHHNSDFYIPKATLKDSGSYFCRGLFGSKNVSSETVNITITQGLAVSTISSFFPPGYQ
T2 sequence (P12314 16-292): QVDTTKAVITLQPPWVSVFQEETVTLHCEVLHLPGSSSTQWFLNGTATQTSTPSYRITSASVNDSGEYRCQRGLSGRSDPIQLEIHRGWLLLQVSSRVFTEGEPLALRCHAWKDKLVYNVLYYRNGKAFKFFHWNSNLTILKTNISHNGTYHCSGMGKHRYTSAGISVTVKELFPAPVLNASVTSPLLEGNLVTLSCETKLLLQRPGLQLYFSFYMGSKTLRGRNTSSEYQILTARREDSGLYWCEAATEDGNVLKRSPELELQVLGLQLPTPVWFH
T1 sequence (P08637 17-208): as the sequence (P08637 17-208) above
T4 sequence (P08637 17-208 F176V limits assumed): as the sequence (P08637 17-208) above, with F160V counted along it

B1: H240-A5E/H240-B3E/L73-k0 (antibody, human IgG1, kappa)
heavy 1: not shown
heavy 2: not shown
light: DIQMTQSPSSLSASVGDRVTITCRASQDIHKYIAWYQQKPGQAPRLLIQYTSTLQPGVPSRFSGSGSGTDYTFTISSLQPEDIATYYCLQYEQLRTFGGGTKVEIKRTVAAPSVFIFPPSDEQLKSGTASVVCLLNNFYPREAKVQWKVDNALQSGNSQESVTEQDSKDSTYSLSSTLTLSKADYEKHKVYACEVTHQGLSSPVTKSFNRGEC
notes: Anti-EREG IgG1 control: H240-G1dE with D356K/H435R in one H chain and K439E in the other, no FcgR-related alterations
As for B1, the equilibrium dissociation constant (Kd) is 1600 nM with FcgRIIIa F; 0.61 nM with FcgRIa; 910 nM with FcgRIIa H; 330 nM with FcgRIIIa V; 4300 nM in the assay with FcgRIIb; 940 nM with FcgRIIa R.

B2: GpH7-A5/GpH7-B3/GpL16-k0 (antibody, human IgG1, kappa)
heavy 1: not shown
heavy 2: not shown
light: DIVMTQSPLSLPVTPGEPASISCQASESLVHSNRNTYLHWYLQKPGQSPQLLIYKVSNRFSGVPDRFSGSGSGTDFTLKISRVEAEDVGVYYCSQNTHVPPTFGQGTKVEIERTVAAPSVFIFPPSDEQLKSGTASVVCLLNNFYPREAKVQWKVDNALQSGNSQESVTEQDSKDSTYSLSSTLTLSKADYEKHKVYACEVTHQGLSSPVTKSFNRGEC
notes: also called HeCon Ab; control heterodimerized antibody
The molecule B2 registered a Kd in assay [1] of 1600 nM. Further, in [2], the “KD ratio 1 (KD of GpH7-G1d/GpL16-k0 divided by KD of the antibody)” value worked out at 0.75 fold and the “KD ratio 2 (KD of GpH7-A5/GpH7-B3/GpL16-k0 divided by KD of the antibody)” value came out at 1 fold. In [3], the “FcγRIIIa BINDING ACTIVITY (relative)” value is 100 relative, GpH7-A5/GpH7-B3/GpL16-k0 = 100. The “FcγR BINDING ACTIVITY (relative FcγRIIIa binding)” value in assay [4] was 100 relative, GpH7-A5/GpH7-B3/GpL16-k0 = 100.

B3: GpH7-TA8/GpH7-B3/GpL16-k0 (antibody, human IgG1, kappa)
heavy 1: QVQLVQSGAEVKKPGASVTVSCKASGYTFTDYEMHWIRQPPGEGLEWIGAIDPKTGDTAYSESFQDRVTLTADKSTSTAYMELSSLTSEDTAVYYCTRFYSYTYWGQGTLVTVSSASTKGPSVFPLAPSSKSTSGGTAALGCLVKDYFPEPVTVSWNSGALTSGVHTFPAVLQSSGLYSLSSVVTVPSSSLGTQTYICNVNHKPSNTKVDKKVEPKSCDKTHTCPPCPAPEYLWGPSVFLFPPKPKDTLMISRTPEVTCVVVDVSHEDPEVKFNWYVDGVEVHNAKTKPREEQYNATYRVVSVLTVLHQDWLNGKEYKCKVSNKALRAPIEKTISKAKGQPREPQVYTLPPSRKELTKNQVSLTCLVKGFYPSDIAVEWESNGQPENNYKTTPPVLDSDGSFFLYSKLTVDKSRWQQGNVFSCSVMHEALHNRYTQKSLSLSP
heavy 2: not shown
light: DIVMTQSPLSLPVTPGEPASISCQASESLVHSNRNTYLHWYLQKPGQSPQLLIYKVSNRFSGVPDRFSGSGSGTDFTLKISRVEAEDVGVYYCSQNTHVPPTFGQGTKVEIERTVAAPSVFIFPPSDEQLKSGTASVVCLLNNFYPREAKVQWKVDNALQSGNSQESVTEQDSKDSTYSLSSTLTLSKADYEKHKVYACEVTHQGLSSPVTKSFNRGEC
notes: Heterodimerized anti-glypican-3 IgG1 variant
For the molecule B3, in [3], the “FcγRIIIa BINDING ACTIVITY (relative)” value is 150 relative, GpH7-A5/GpH7-B3/GpL16-k0 = 100.

B4: GpH7-TA7/GpH7-B3/GpL16-k0 (antibody, human IgG1, kappa)
heavy 1: QVQLVQSGAEVKKPGASVTVSCKASGYTFTDYEMHWIRQPPGEGLEWIGAIDPKTGDTAYSESFQDRVTLTADKSTSTAYMELSSLTSEDTAVYYCTRFYSYTYWGQGTLVTVSSASTKGPSVFPLAPSSKSTSGGTAALGCLVKDYFPEPVTVSWNSGALTSGVHTFPAVLQSSGLYSLSSVVTVPSSSLGTQTYICNVNHKPSNTKVDKKVEPKSCDKTHTCPPCPAPEYLWGPSVFLFPPKPKDTLMISRTPEVTCVVVDVSHEDPEVKFNWYVDGVEVHNAKTKPREEQYNATYRVVSVLTVLHQDWLNGKEYKCKVSNKALPAPIEKTISKAKGQPREPQVYTLPPSRKELTKNQVSLTCLVKGFYPSDIAVEWESNGQPENNYKTTPPVLDSDGSFFLYSKLTVDKSRWQQGNVFSCSVMHEALHNRYTQKSLSLSP
heavy 2: not shown
light: DIVMTQSPLSLPVTPGEPASISCQASESLVHSNRNTYLHWYLQKPGQSPQLLIYKVSNRFSGVPDRFSGSGSGTDFTLKISRVEAEDVGVYYCSQNTHVPPTFGQGTKVEIERTVAAPSVFIFPPSDEQLKSGTASVVCLLNNFYPREAKVQWKVDNALQSGNSQESVTEQDSKDSTYSLSSTLTLSKADYEKHKVYACEVTHQGLSSPVTKSFNRGEC
notes: as for B3
Consider B4, for which binding in assay [1] was put at a Kd of 320 nM. For the same molecule, in assay [2], the “KD ratio 1 (KD of GpH7-G1d/GpL16-k0 divided by KD of the antibody)” value is 3.8 fold and the “KD ratio 2 (KD of GpH7-A5/GpH7-B3/GpL16-k0 divided by KD of the antibody)” value was found to be 5.1 fold. Besides, the “FcγRIIIa BINDING ACTIVITY (relative)” value in [3] was 210 relative, GpH7-A5/GpH7-B3/GpL16-k0 = 100. Besides, the “FcγR BINDING ACTIVITY (relative FcγRIIIa binding)” value in assay [4] is 210 relative, GpH7-A5/GpH7-B3/GpL16-k0 = 100.
